The chains are these.
B1: NTGA 6: Phl p wild type sequence, Table 2 (protein)
chain: MADEKLAKLREAVAGLPQISDNEKSGFISLVSRYLSGEEEHIEWPKIHTPTDEVVVPYDTVDAPPEDLEATKALLDKLAVLKLNGGLGTTMGCTGPKSVIEVRNGFTFLDLIVLQIESLNKKYGSNVPLLLMNSFNTHEDTLKIVEKYANSSIDIHTFNQSQYPRVVADEFLPWPSKGKTDKDGWYPPGHGDIFPSLMNSGKLDLLLSQGKEYVFIANSDNLGAIVDMKILNHLIHKQNEYCMEVTPKTLADVKGGTLISYEGRVQLLEIAQVPDAHVDEFKSIEKFKIFNTNNLWVNLKAIKRLVEADALKMEIIPNPKEVDGVKVLQLETAAGAAIRFFDHAIGINVPRSRFLPVKATSDLQLVQSDLYTLVDGFVTRNSARTDPSNPSIELGPEFKKVGSFLGRFKSIPSIVELDSLKVSGDVWFGSGIVLKGKVTITAKPGVKLEIPDGAVLENKDINGAEDL
modifications: Phleum Pratense
B2: NTGA 39/59: Phl p wild type full length sequence from which PG+ peptides of NTGA's 39 and 59 derive (protein)
chain: MAPRKFFVGGNWKCNGASDDVKKIVTVLNEAEVPSEDAVEVVVSPPFVFLQQAKALLRPDFAVAAQNCWVRKGGAFTGEISAEMLVNLQVPWVILGHSERRALLSESNDFVADKVAYALAQGLKVIACIGETLEQREAGTTMEVVAAQTKAIAEKISDWTNVVLAYEPVWAIGTGKVASRAQAQEVHDGLRKWLHANVGPAVAESTRIIYGGSVNGANCKELAAQPDLDGFLVGGASLKPEFVDIIKSATVKSSS
modifications: Phleum Pratense
B3: NTGA 19: Phl p wild type sequence, Table 2 (protein)
chain: GVVATTDAVEACTGVNVAVMVGGFPRKEGMERKDVMSKNVSIYKSQASALEAHAAPNCKVLVVANPANTNALILKEFAPSIPEKNISCLTRLDHNRALGQVSERLNVQVSDVKNVLIWGNHSSSQYPDVNHATVKTSSGEKPVRELVQDDEWLNGPFIATVQQRGAAIIKARKLSSALSAASSACDHIRDWVLGTPEGTFVSMGVYSDGSYGVPAGLIYSFPVTCSGGEWTIVQGLPIDEFSRKKMDATAQELSEEKALAYSCL
modifications: Phleum Pratense
B4: NTGA 73: Phl p wild type sequence, Table 2 (protein)
chain: MSSAKQVLEPAFQGAGQKPGTEIWRIENFNPVPLPKSDYGKFYCGDSYIVLQTTCNKGGAYLFDIHFWIGKDSSQDEAGTSAIKTVELDTMLGGRAVQHREPQGYESDKFLSYFKPCIIPLEGGFASGFKTPEEEKFETRLYICKGKRAIRVKEVPFARSSLNHDDVFILDTEKKIYQFNGANSNIQERAKALEVIQHLKDKYHEGVCDVAIVDDGKLQAESDSGEFWVVFGGFAPIGKKTVSDDDVILETSPTKLYSINNGKLKLEDIVLTKSILENTKCFLLDCGSELFVWVGRVTQVDDRKAASAAVEEFIVKQNRPKTTRVTQVIQGYENHTFKSLFESWPVSSTGNASTEEGRGKVAALLKKKGDVKGASKNSTPVNEEVPPLLEGSGKLEVWCVDGSAKTALPKEDLGKFHSGDCYIVLYTYHSGEKREEFYLTYWIGKDSVLEDQHMALQIATTIWNSMKGRPVLGRIYQGKEPPQFIALFQPMVILKGGISSGYKKSIEENGLKDETYSGTGIALVHIHGTSIHNNKTLQVDAVSISLSSTDCFVLQSGNSMFTWIGNTSSYEQQQWAAKVAEFLKPGASVKHCKEGTESSAFWSALGGKQNYTSKNATQDVLREPHLYTFSFRNGKLEVTEVFNFSQDDLLTEDVMILDTHAEVFVWMGQCVDTKEKQTAFETGQKYVEHAVNFEGLSPDVPLYKVSEGNEPCFFRTYFSWDNTRSVIHGNSFQKKLSLLFGMRSESGSKGSGDGGPTQRASALAALSSAFNPSSQDKQSNDRPKSSGDGGPTQRASALAALSSSLNPSSKPKSPHSQSRSGQGSQRAAAVAALSNVLTAEGSTLSPRNDAEKTELAPSEFHTDQDAPGDEVPSEGERTEPDVSQEETANENGGETTFSYDRLISKSTDPVRGIDYKRRETYLSDSEFETVFGVTKEEFYQQPRWKQELQKRKADLF
modifications: Phleum Pratense
B5: NTGA 87: Phl p wild type sequence, Table 2 (protein)
chain: MAVKVYVVYYSMYGHVGKLAEEIKKGASSVEGVEVKVWQVPEILSEEVLGKMGAPPKTDVPIISPQELAEADGILFGFPTRFGMMASQMKAFFDATGGLWREQSLAGKPAGVFFSTGTQGGGQETTPLTAVTQLTHHGMVFVPVGYTFGAKMFDMEKVQGGSPYGAGTFAGDGSRWPSEMELEHAFHQGKYFAGIAKKLKGS
modifications: Phleum Pratense
B6: NTGA 13: Phl p wild type sequence, Table 2 (protein)
chain: MDEEYDVIVLGTGLKECILSGLLSVDGLKVLHMDRNDYYGGESTSLNLTKIWKRFKGSEATPDHLGVSKEYNVDMVPKFMMANGALVRVLIRTSVTKYLNFKAVDGSFVYNNGKIHKVPATDVEALKSNLMGLFEKRRARKFFIYVQDYEEEDPKSHEGLDLHKVTTREVISKYGLEDDTVDFIGHALALHRDDNYLDEPAIDTVKRMKLYAESLARFQGGSPYIYPLYGLGELPQAFARLSAVYGGTYMLNKPECKVEFDESGKAFGVTSEGETAKCKKVVCDPSYLPDKVTKVGRVARAICIMKHPIPDTKDSHSVQIILPKKQLKRKSDMYVFCCSYAHNVAPKGKFIAFVSTEAETDKPEIELKPGIDLLGPVEETFFDIYDRYEPANAPEEDNCFVTNSYDATTHFETTVKDVLALYSKITGKELDLSVDLNAASAGESE
modifications: Phleum Pratense
B7: NTGA 3: Phl p wild type sequence, Table 2 (protein)
chain: MDDHKEHKEKEHTGGNPEVNEEEEEDEEAKRAVLLGPQVPLKEQLELDKDDESLRRWKEQLLGQVDTEQLGETAEPEVKVVDLTILSPDRPDLVLPIPFVADEKGYAFALKDGSTYSFRFSFIVSNNIVSGLKYTNTVWKTGVRVENQKMMLGTFSPQPEPYIYVGEEETTPAGIFARGSYSAKLKFVDDDGKVYLEMSYYFEIRKDWPTGQ
modifications: Phleum Pratense
B8: NTGA 52: Phl p wild type sequence, Table 2 (protein)
chain: MDACRLLLLLLLGLLGLLAPLASAQLSREFYKASCPDAEKIVAAVIEKKLKEDPGTAAGLLRLLFHDCFANGCDASILIDPLSNQSAEKEAGPNISVRGFEVIDDIKKELEAKCPKTVSCADIVALGTRDAVRISGGPAYEVPTGRRDSLVSNREEADNNLPGPDIPIPKLTSEFLSRGFTPEEMVVLLAGGHSIGKVRCIFIEPDATPMDPGYQASISKLCDGPNRDTGFVNMDEHNPNVIDSSYFANVLAKKMPLTVDRLLGLDSKTTPIIKNMLNKPNDFMPTFAKAMEKLSVLKVITGKDG
modifications: Phleum Pratense
B9: NTGA 8: Phl p wild type sequence, Table 2 (protein)
chain: FEGCLAKSYKSEKSDKSATYDYSANIECEKEPPKPLYGGGILTGAEAPAPVSAGGKKLLMAKSKSAPAKGSTLKVELEKDTHYTLSAWLQLSKSTGDVKAILVTPDGNFNTAGMLVVQSGCWTMLKGGATSFAAGKGELFFETNVTAELMVDSMSLQPFSFEEWKSHRHESIAKERKKKVKITVHGSDGKVLPDAELSLERVAKGFPLGNAMTKEILDIPEYEKWFTSRFTVATMENEMKWYSTEYDQNQELYEIPDKMLALAEKYNISVRGHNVFWDDQSKQMDWVSKLSAPQLKKAMEKRMKNVVSRYAGKLIHWDVLNENLHYSFFEDKLGKDASAEVFKEVAKLDDKPILFMNEYNTIEEPNDAAPLPTKYLAKLKQIQSYPGNSKLKYGIGLESHFDTPNIPYVRGSLDTLAQAKVPIWLTEIDVKKGPKQVEYLEEVMREGFAHPGVKGIVLWGAWHAKECYVMCLTDKNFKNLPVGDVVDKLITEWKAVPEDAKTDDKGVFEAELFHGEYNVTVKHKS
modifications: Phleum Pratense

The first assay has as its system cultured PBMCs of the allergic donors. The experiment in a line: ELISPOT of IL-5 or IFNg production by cultured PBMCs of TG allergic donors in response to peptide. Type of assay: cell-based, human.
Conditions: not given
The procedure, abridged:
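Counts of responding donors among 20 TG-allergic subjects, judged by ELISPOT for IL-5 or IFNg (positive: minimum 20 SFCs/10^6 PBMCs, stimulation index 2 or more, P .05). Cells were pre-expanded with TG pollen extract or peptide pool, then stimulated at 1×10^5/well with 10 μg/mL peptide.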
On to B1, for which the “immune reactivity (SFC counts in ELISPOT) of highly conserved PG+ peptides derived from the NTGA” value was “high immune reactivity”.

The same assay, now with this note: NTGA number given = criterion met; TG allergic donors n=20.
Regarding B2, the “NTGA's containing at least one T cell epitope, Th+ (Col 2)” value is on record as 39/59.
In the case of B1, the “NTGA's containing at least one T cell epitope, Th+ (Col 2)” value was 6.

The assay is the same for the next values; noted with them: Table 6; PG+ peptides recognized by T cells of grass allergic donors (n=20).
For the molecule B3, the “No of PG+ & th+ peptides per NTGA” value was found to be 0.
B4: the “No of PG+ & th+ peptides per NTGA” value was found to be 0.
For the molecule B5, the “No of PG+ & th+ peptides per NTGA” value was found to be 0.
For the molecule B6, the “No of PG+ & th+ peptides per NTGA” value is recorded as 0.
As for B7, the “No of PG+ & th+ peptides per NTGA” value was 0.
On the same count and under the same terms, the value for B1 was 22.

The assay is the same for the next values; noted with them: Table 6; PP peptides recognized by T cells of grass allergic donors (n=20).
B3: the “No of PP & Th+ peptides per NTGA” value was found to be 0.
For the molecule B4, the “No of PP & Th+ peptides per NTGA” value was 0.
Still for that read-out and setting: for B5 the value was 0.
The same measure, in the same setting: for B6 the value was 0; for B7, 0; for B1, 14.

The assay is the same for the next values; noted with them: Table 7; peptides per NTGA recognized by T cells of grass allergic donors (n=20).
Consider B3, for which the “# Th+” value is given as 0.
Regarding B4, the “# Th+” value turned out to be 0.
Still for that read-out and setting: the value for B8 was 1; that for B5 was 0.
With B6, the “# Th+” value worked out at 0.
Same read-out and setting: for B7 the value was 0; for B1, 9; for B9, 0.

Still in this assay, the particulars now being: among top pan-pollen NTGA's ranked by number of PP peptides.
As for B1, the “T cell reactivity of sequences contained in the protein” value is listed as “highly T cell reactive sequences”.

The same assay, now with this note: n=20 grass allergic donors; PG+ peptides of the NTGA.
On to B1, for which the “PG+ peptides recognized by grass allergic donors” value is reported as “two”.

In the next assay the test system is splenocytes. The experiment in a line: Prophylactic SLIT tolerance induction in mice, splenocyte proliferation. The assay is classed as in vivo, BALB/c mice. Particulars: prophylactic SLIT two weeks, FIG. 3A / 3C. The text has this: Then the tolerance induction of NTGA 86/51 was investigated in a prophylactic mice model using sublingual administration (FIG. 3)
The ability of NTGA 86/51 and NTGA 6 to induce prophylactic tolerance was investigated by SLIT treating naive BALB/c mice with NTGA 86/51 or NTGA 6 for two weeks (Monday-Friday) followed by one Phl p extract sensitization or sensitization to the immunogen itself (NTGA 86/51 or NTGA 6) as described above. Eleven days after the sensitization, splenocytes were harvested and stimulated in vitro with NTGA 86/51 as well as Phl p extract.
For the molecule B1, the “tolerance towards the immunogen itself (proliferation of splenocytes vs buffer (sham) treated mice)” value is on record as “capable of inducing tolerance towards itself”.

Source of the values: patent US20160287696A1, “PAN POLLEN IMMUNOGENS AND METHODS AND USES FOR IMMUNE RESPONSE MODULATION” (LA JOLLA INSTITUTE FOR ALLERGY AND IMMUNOLOGY, priority 2013, published 2016).
